This note sets out measurements from patent US10407662B2, “Method of culturing pluripotent stem cell, and polypeptide to be used therefor” (FUJIFILM Corporation, priority 2012, dated 2019).

In data set [1] the test system is human iPS cells. Briefly: Cell Adhesiveness Evaluation 3 (RCP-1 addition amount series). The format is cell-based. The conditions noted are these: adding not less than 125 pmol/cm^2. As for the experimental part: Cell adhesiveness was evaluated in the same manner as in <Cell Adhesiveness Evaluation 1> except that RCP-1 was adjusted with PBS to have a concentration of from 125 pmol/cm^2 to 1000 pmol/cm^2 to be used. In Table 9, cell adhesion rates were relative values in a case in which a cell adhesion rate to a cultivation container to which natural vitronectin was adsorbed at a concentration of 130 pmol/cm^2 was regarded as 100. n=3.

Data set [2] in a line: Evaluation of adsorptivity to culture plate (OPA fluorescence). It counts as physicochemical. The conditions noted are these: FIG. 1; 0 to 200 pmol/cm^2, 37° C. 2 hours, washed with PBS twice. As for the experimental part:
Each polypeptide obtained by the above-described method was diluted with a predetermined buffer so as to be added to wells at a predetermined final concentration of from 0 to 200 pmol/cm^2, and the resultant was aliquoted in 64 μL to a 96-well plate made of polystyrene and treated with plasma (Tissue Culture-Treated, Falcon). Each polypeptide was adsorbed to the plate by incubation at 37° C. for 2 hours, and was thereafter washed with PBS twice, to obtain a surface coated with each of the polypeptides of from RCP-1 to RCP-16.
To surfaces coated with RCP-1, and from RCP-11 to RCP-16 among the polypeptide-coated surfaces obtained as described above, 64 μL of each of boric acid buffer and 1 N NaOH was applied, and incubated at 80° C. and a humidity of 100% for 24 hours. After air-cooling, 75 μL of boric acid buffer was added to each well, and 50 μL of reaction liquid in which an OPA (o-phthalaldehyde: Wako Pure Chemical Industries, Ltd.)/methanol solution (160 mg/ml) and an NAC (N-acetyl-L-cysteine: Wako Pure Chemical industries, Ltd.)/boric acid buffer solution (2 mg/ml) were mixed at 1:100 (mass ratio) was further added. After incubation at 40° C. for 30 minutes, the fluorescence intensity thereof was measured (excitation of 355 nm/fluorescence of 486 nm) using an ENVISION MULTI-LABEL COUNTER (PerkinElmer Inc.). A calibration curve was separately made from each polypeptide solution, to calculate an amount of adsorption. In FIG. 1, a black rhombus, a black tetragon, a black triangle, a black circle, a white rhombus, a white tetragon, and a white triangle represent RCP-1, RCP-11, RCP-12, RCP-13, RCP-14, RCP-15, and RCP-16, respectively.

In data set [3] the test system is human iPS cells. Briefly: Evaluation of Maintenance of Undifferentiation (colony form, NANOG staining). The format is cell-based. As for the experimental part: iPS cells collected in the same manner as in <Cell Adhesiveness Evaluation 1> described above were suspended in TESR2. Induced pluripotent stem cells (iPS cells) were seeded on a 6-well plate (Tissue Culture-Treated, Falcon) to which each of the sample 1, the sample 2, the sample 5, the sample 6, and the sample 7 used in <Cell Adhesiveness Evaluation 1> described above was adsorbed in the same manner as in <Cell Adhesiveness Evaluation 1>, and were cultured in a CO2 incubator at 37° C. The culture medium was replaced by a fresh culture medium every day except the next day after the seeding. Subculture was performed by the same method as mentioned above every six days.
The cells were cultured under these conditions for 1 month, thereafter immobilized with 4% paraformaldehyde, and made to have membrane permeability enhanced with 1% Triton-X/PBS. Blocking treatment was performed with an Image IT Signal Enhancer (Invitrogen), followed by adding an anti-human NANOG antibody (AF1997, R&D Systems, Inc), ALEXA FLUOR 555-CONJUGATE rabbit anti-goat IgG antibody (Invitrogen), and DAPI (Dojindo Laboratories), by performing labeling, and by photographing the cells with a fluorescence microscope.
In each of FIG. 3 and FIG. 4, “A”, “B”, “C” “D”, and “E” show iPS cells cultured on RCP-1, iPS cells cultured on RCP-11, iPS cells cultured on the natural human vitronectin, iPS cells cultured on rinaminin-5, and iPS cells cultured on rLaminin-511, respectively. Scale bar: 100 μm. In FIG. 3, overall colony images are shown in the left column, while magnified images are shown in the right column; and in FIG. 4, DAPI-stained images are shown in the left column while anti-NANOG antibody-stained images are shown in the right column. Scale bars in FIGS. 3 and 4: 200 μm.

In data set [4] the test system is human iPS cells. Briefly: Proliferation Evaluation of iPS cells on polypeptide-coated plate. It counts as cell-based. As for the experimental part:
The iPS cells collected in the same manner as in <Cell Adhesiveness Evaluation 1>described above were seeded on a 96-well plate, to which RCP-1, RCP-11, and the natural human vitronectin were adsorbed, at a rate of 250 cells/well, and were cultured in a 5% CO2 incubator at 37° C. for 8 days. The number of adherent cells after each lapse of time was measured by the same method as in <Cell Adhesiveness Evaluation 1> described above, to obtain proliferation curves, The proliferation curves were indicated in FIG. 2. In FIG. 2, a black rhombus represents an example in which RCP-1 was used, while a black tetragon represents an example in which RCP-11 was used.
Similarly, each of samples from […] was prepared so as to have an addition concentration listed in Table 8 with each of from RCP-1 to RCP-10, and RCP-17, and Human Recombinant Laminin-511 as a reference, was seeded on a 96-well plate, to which each polypeptide was adsorbed, at a rate of 5000 cells/well in the same manner as in<Cell Adhesiveness Evaluation 1> described above, and was cultured in a CO2 incubator at 37° C. for 3 days. The number of cells after the 3 days was measured by the same method as in <Cell Adhesiveness Evaluation 1> described above.

B1: RCP-1: recombinant polypeptide, Met + human vitronectin (SEQ ID NO:3) positions 1-55, 269-459 (protein)
chain: MDQESCKGRCTEGFNVDKKCQCDELCSYYQSCCTDYTAECKPQVTRGDVFTMPEDEPSQEECEGSSLSAVFEHFAMMQRDSWEDIFELLFWGRTSAGTRQPQFISRDWHGVPGQVDAAMAGRIYISGMAPRPSLAKKQRFRHRNRKGYRSQRGHSRGRNQNSRRPSRATWLSLFSSEESNLGANNYDDYRMDWLVPATCEPIQSVFFFSGDKYYRVNLRTRRVDTVDPPYPRSIAQYWLGCPAPGHL
modifications: Synthetic Peptide RCP-1
With B1, the “adhesiveness of iPS cells (in words)” value in the data set on human iPS cells [1] was “cell adhesion rate equivalent to that of natural vitronectin”. The “adsorptivity to a plate” value in data set [2] is listed as “favorable adsorptivity to a plate, equivalent to that of RCP-11”. Moreover, in the data set on human iPS cells [3] (FIG. 3, TESR2, subculture every six days), the “form of iPS cell colonies” value is “homogeneous colony and a form characteristic for undifferentiated cells having a high nucleus occupying rate”. Further, in the data set on human iPS cells [3] (FIG. 4, cultured for 1 month), the “NANOG expression (immunostaining)” value is on record as “strongly expressed NANOG in an overall colony”. Moreover, the “maintenance of undifferentiated state” value in the data set on human iPS cells [3] (cultured for 1 month) is on record as “undifferentiated state was favorably maintained”. For the same molecule, the “cell proliferation property (in words)” value in the data set with human iPS cells [4] (FIG. 2 and Table 8) is listed as “higher cell proliferation property than that of RCP-11”. The “The Number (%) of Cells after 3 Days” value in the data set on human iPS cells [4] (addition amount 80 μg/cm^2, 5000 cells/well) came to 100.0%.
